This is an account of results in US6812377B2, “Genetic engineering of syringyl-enriched lignin in plants” (Board of Control of Michigan Technological University, priority 2000, dated 2004).

In general, Km refers to the concentration of substrate that gives half-maximal velocity. A word on the Vmax: it is the rate approached at saturating substrate. The term kcat denotes the number of substrate molecules converted per active site and unit of time at saturation.

The target of data set [1] is T1, recombinant PtCAD protein (Populus tremuloides, UniProt Q9M632). The data set is described as follows: Kinetic properties of the recombinant PtCAD protein (HPLC-UV/MS). The class given is biochemical. The conditions noted are these: substrate of PtCAD; relative, coniferaldehyde = 100. How it is done:
(§1) To characterize the enzyme pH optima, the substrate and recombinant PtCAD or PtSAD protein concentrations described above were used in sodium phosphate buffers, pH 5 to 8.5. […] For inhibition kinetics, the PtCAD-mediated reduction of sinapaldehyde (1 to 200 μM) was assayed in the presence of 1 to 5 μM coniferaldehyde, and the PtSAD-catalyzed reduction of coniferaldehyde (1 to 200 μM) was assayed in the presence of 1 to 5 μM sinapaldehyde. All reactions were terminated by the addition of 10 μL of 6 N HCI (to bring the pH to 2) and 500 ng of internal standard o-coumaric acid and analyzed by HPLC-UV/MS. An aliquot of 100 μL of reaction mixture was injected directly onto a Supelcosil LC-ABZ column (15 cm×4.6 mm×5 μm; Supelco, Bellefonte, Pa.) with automatic sample injection and separated isocratically with a Hewlett-Packard (HP) 1100 liquid chromatography system at 40° C. and a flow rate of 0.25 mL/min. […] The reaction products were identified and confirmed by comparing the ion fragmentation patterns of the product and the authentic standard in MS scanning mode at 70 V. The product quantity and Km, Vmax, kcat, and apparent inhibition constant (Ki) values (means±SE) were determined as described (Osakabe et al., 1999; Li et al., 2000). The results of the inhibition kinetics for both the CAD enzyme (i.e. Table 2) and the SAD enzyme (i.e., Table 3) using a variety of substrates are illustrated below.

Data set [2] has as its target recombinant PtSAD protein (Populus tremuloides, UniProt Q94G59). The data set is described as follows: Kinetic properties of the recombinant PtSAD protein (HPLC-UV/MS). Format: biochemical. The following applies: substrate of PtSAD; relative, sinapaldehyde = 100. How it is done:
as §1

Data set [3] deals with PtSAD recombinant protein. The data set is described as follows: SAD enzyme activity assay, single and mixed substrates (HPLC-MS). Format: biochemical, Populus tremuloides. How it is done:
After 10 min at 30° C., the reaction was terminated and extracted with 0.5 ml ethyl acetate. The extraction was repeated 4 times and the combined ethyl acetate was evaporated and dissolved in the HPLC mobile phase for LC-MS identification and quantitation of the reaction products as we did before (Osakabe et al., 1999; Li et al. 2000). […] The SAD reactions with mixed substrates, sinapaldehyde and coniferyl aldehyde, were therefore conducted at the optimal pH 7.0 under above-described conditions. […] To characterize the enzyme pH optima, the substrate and recombinant PtCAD or PtSAD protein concentrations described above were used in sodium phosphate buffers, pH 5 to 8.5. All reactions were for 10 minutes at 30° C. An aliquot of 100 μL of reaction mixture was injected directly onto a Supelcosil LC-ABZ column (15 cm×4.6 mm×5 μm; Supelco, Bellefonte, Pa.) with automatic sample injection and separated isocratically with a Hewlett-Packard (HP) 1100 liquid chromatography system at 40° C. and a flow rate of 0.25 mL/min. […] The reaction products were identified and confirmed by comparing the ion fragmentation patterns of the product and the authentic standard in MS scanning mode at 70 V. The product quantity and Km, Vmax, kcat, and apparent inhibition constant (Ki) values (means±SE) were determined as described (Osakabe et al., 1999; Li et al., 2000). The results of the inhibition kinetics for both the CAD enzyme (i.e. Table 2) and the SAD enzyme (i.e., Table 3) using a variety of substrates are illustrated below.

Data set [4] addresses T1, recombinant PtCAD protein. Put plainly: PtCAD enzyme activity with a mixture of coniferaldehyde and sinapaldehyde (HPLC-MS). Format: biochemical. An excerpt: A guaiacyl pathway gene encoding coniferyl alcohol dehydrogenase (CAD, FIG. 1) from Populus tremuloides (GenBank #AF217957) was first cloned. This cDNA was designated as PtCAD (GenBank #AF217957). E. coli-expressed recombinant PtCAD protein was characterized for its catalytic activity with coniferaldehyde and sinapaldehyde. Because monolignol biosynthetic pathway intermediates are present together in lignifying tissues (Osakabe et al., 1999; Li et al. 2000), the PtCAD enzyme activity with a mixture of coniferaldehyde and sinapaldehyde was assayed. As shown in FIG. 5 (a) and (c), the reaction mixture was separated by HPLC after the enzyme reaction. […]
An aliquot of 100 μL of reaction mixture was injected directly onto a Supelcosil LC-ABZ column (15 cm×4.6 mm×5 μm; Supelco, Bellefonte, Pa.) with automatic sample injection and separated isocratically with a Hewlett-Packard (HP) 1100 liquid chromatography system at 40° C. and a flow rate of 0.25 mL/min. […] The reaction products were identified and confirmed by comparing the ion fragmentation patterns of the product and the authentic standard in MS scanning mode at 70 V. The product quantity and Km, Vmax, kcat, and apparent inhibition constant (Ki) values (means±SE) were determined as described (Osakabe et al., 1999; Li et al., 2000). […]

Substrate in data set [5]: COc1cc(/C=C/C=O)cc(O)c1O
The data set is described as follows: Kinetic properties of the recombinant PtSAD protein (HPLC-UV/MS). The class given is biochemical, Populus tremuloides. The conditions noted are these: other: substrate of PtSAD, pH 7.0, 4 min, 30° C., NADPH, means of three independent assays.

Substrate in data set [6]: COc1cc(/C=C/C=O)cc(OC)c1O
Described as above. Format: biochemical, Populus tremuloides. The conditions noted are these: other: substrate of PtSAD, pH 7.0, 4 min, 30° C., NADPH, means of three independent assays.

Substrate in data set [7]: COc1cc(/C=C/C=O)ccc1O
The data set is described as above. Format: biochemical, Populus tremuloides. The following applies: other: substrate of PtSAD, pH 7.0, 4 min, 30° C., NADPH, means of three independent assays.

Substrate in data set [8]: O=C/C=C/c1ccc(O)c(O)c1
The description is as above. Format: biochemical, Populus tremuloides. The conditions noted are these: other: substrate of PtSAD, pH 7.0, 4 min, 30° C., NADPH, means of three independent assays.

Substrate in data set [9]: O=C/C=C/c1ccc(O)cc1
The data set is described as above. The class given is biochemical, Populus tremuloides. The conditions noted are these: other: substrate of PtSAD, pH 7.0, 4 min, 30° C., NADPH, means of three independent assays.

Substrate in data set [10]: COc1cc(/C=C/C=O)cc(O)c1O
Put plainly: Kinetic properties of the recombinant PtCAD protein (HPLC-UV/MS). The conditions noted are these: other: substrate of PtCAD, pH 8.0, 4 min, 30° C., NADPH, means of three independent assays. The class given is biochemical, Populus tremuloides. How it is done:
as §1

Substrate in data set [11]: COc1cc(/C=C/C=O)cc(OC)c1O
The description is as above. The following applies: other: substrate of PtCAD, pH 8.0, 4 min, 30° C., NADPH, means of three independent assays. The class given is biochemical, Populus tremuloides. How it is done: as §1

Substrate in data set [12]: COc1cc(/C=C/C=O)ccc1O
The description is as above. Format: biochemical, Populus tremuloides. The conditions noted are these: other: substrate of PtCAD, pH 8.0, 4 min, 30° C., NADPH, means of three independent assays. How it is done:
as §1

Substrate in data set [13]: O=C/C=C/c1ccc(O)c(O)c1
Described as above. The following applies: other: substrate of PtCAD, pH 8.0, 4 min, 30° C., NADPH, means of three independent assays. Format: biochemical, Populus tremuloides. How it is done:
as §1

Substrate in data set [14]: O=C/C=C/c1ccc(O)cc1
The description is as above. The conditions noted are these: other: substrate of PtCAD, pH 8.0, 4 min, 30° C., NADPH, means of three independent assays. Format: biochemical, Populus tremuloides. How it is done:
as §1

As for `O=C/C=C/c1ccc(O)c(O)c1` [Caffealdehyde], the Vmax/Km was 4.4% in [1] and 2.2% in [2].
Consider `COc1cc(/C=C/C=O)cc(O)c1O` [5-Hydroxyconiferaldehyde], for which the Vmax/Km in data set [1] was found to be 10.6%; in data set [2], 15.5%.
The corresponding values for `O=C/C=C/c1ccc(O)cc1` [p-Coumaraldehyde] are 30.1% and 27.4%.
For `COc1cc(/C=C/C=O)cc(OC)c1O` [Sinapaldehyde], the results for the Vmax/Km in data set [1] and in [2] were 12.0% and 100%, respectively. Moreover, the “reaction of PtSAD with the substrate in a mixture” value in data set [3] (mixture of coniferaldehyde and sinapaldehyde, pH 7.0) is recorded as “sinapyl alcohol is the exclusive product”. Further, in data set [3] (ratio of specific activities), the “catalytic efficiency of PtSAD with sinapaldehyde versus coniferaldehyde” value is 9 times. In data set [4], the “reaction of PtCAD with the substrate in a mixture” value was “no reaction”.

B1: recombinant PtSAD protein (Populus tremuloides) (protein)
chain: MSKSPEEEHPVKAFGWAARDQSGHLSPFNFSRRATGEEDVRFKVLYCGICHSDLHSIKNDWGFSMYPLVPGHEIVGEVTEVGSKVKKVNVGDKVGVGCLVGACHSCESCANDLENYCPKMILTYASIYHDGTITYGGYSDHMVANERYIIRFPDNMPLDGGAPLLCAGITVYSPLKYFGLDEPGKHIGIVGLGGLGHVAVKFAKAFGSKVTVISTSPSKKEEALKNFGADSFLVSRDQEQMQAAAGTLDGIIDTVSAVHPLLPLFGLLKSHGKLILVGAPEKPLELPAFSLIAGRKIVAGSGIGGMKETQEMIDFAAKHNITADIEVISTDYLNTAIERLAKNDVRYRFVIDVGNTLAATKP
Consider B1, for which the Km was found to be 36.1 µM in data set [5]; 7.4 µM in [6]; 12.7 µM in data set [7]; 140.0 µM in data set [8]; 15.6 µM in data set [9]. The Vmax in data set [5] stood at 3.8 µmol/min/mg; in data set [6], 5 µmol/min/mg; in [7], 2.3 µmol/min/mg; in data set [8], 2 µmol/min/mg; in [9] it was 2.9 µmol/min/mg. Besides, the turnover number (kcat) in [5] came to 2.53 s⁻¹; in data set [6], 3.33 s⁻¹; in [7], 1.53 s⁻¹; in [8], 1.33 s⁻¹; in [9], 1.93 s⁻¹.

B2: recombinant PtCAD protein (Populus tremuloides) (protein)
chain: MGSLETERKIVGWAATDSTGHLAPYTYSLRDTGPEDVLIKVISCGICHTDIHQIKNDLGMSHYPMVPGHEVVGEVVEVGSDVTKFKAGDVVGVGVIVGSCKNCHPCKSELEQYCNKKIWSYNDVYTDGKPTQGGFAESMVVDQKFVVRIPDGMSPEQAAPLLCAGLTVYSPLKHFGLKQSGLRGGILGLGGVGHMGVKIAKAMGHHVTVISSSDKKREEAMEHLGADEYLVSSDVESMQKAADQLDYIIDTVPVVHPLEPYLSLLKLDGKLILMGVINTPLQFVSPMVMLGRKSITGSFIGSMKETEEMLEFCKEKGLASMIEVIKMDYINTAFERLEKNDVRYRFVVDVAGSKLIP
In the case of B2, the Km worked out at 17.5 µM in [10]; 9.1 µM in [11]; 2.3 µM in [12]; 37.0 µM in [13]; 6.2 µM in data set [14]. Moreover, the maximum rate (Vmax) in data set [10] turned out to be 0.17 µmol/min/mg; in [11] it was 0.1 µmol/min/mg; in data set [12], 0.21 µmol/min/mg; in data set [13] it was 0.15 µmol/min/mg; in data set [14], 0.17 µmol/min/mg. In addition, the kcat came out at 0.113 s⁻¹ in data set [10]; 0.0667 s⁻¹ in data set [11]; 0.14 s⁻¹ in data set [12]; 0.1 s⁻¹ in [13]; 0.113 s⁻¹ in data set [14].
